We go through seven molecules from patent US20260116966A1 (KEYMED BIOSCIENCES CHENGDU, published 2026).

One test concerns the target T1, Cynomolgus GPRC5D (Cynomolgus, UniProt Q9NZD1 1-343 (human entry)).
T1 construct: Full length, on stably transfected cells (HEK293-cyGPRC5D, CHO-cyGPRC5D); also called cyGPRC5D
T1 chain: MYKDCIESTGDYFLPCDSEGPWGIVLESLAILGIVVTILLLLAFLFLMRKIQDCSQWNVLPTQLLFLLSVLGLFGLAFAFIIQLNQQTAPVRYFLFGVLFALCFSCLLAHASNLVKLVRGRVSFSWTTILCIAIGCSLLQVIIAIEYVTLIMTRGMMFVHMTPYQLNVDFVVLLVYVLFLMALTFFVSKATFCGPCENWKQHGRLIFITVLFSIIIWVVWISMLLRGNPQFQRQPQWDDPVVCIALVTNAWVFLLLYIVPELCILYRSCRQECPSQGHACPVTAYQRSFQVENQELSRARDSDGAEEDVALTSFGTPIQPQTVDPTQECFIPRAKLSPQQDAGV
Kind of test: flow cytometry, CHO-cyGPRC5D cells.

For test [1], the target named is T2, human GPRC5D (human, UniProt Q9NZD1 1-345).
T2 construct: Full length, on stably transfected cells (HEK293-hGPRC5D, CHO-hGPRC5D); Also used here for the endogenous GPRC5D of the GPRC5D+ myeloma lines MM.1R, MM.1S and NCI-H929; also called hGPRC5D; G-protein-coupled receptor family C group 5 member D
T2 sequence (Q9NZD1 whole entry): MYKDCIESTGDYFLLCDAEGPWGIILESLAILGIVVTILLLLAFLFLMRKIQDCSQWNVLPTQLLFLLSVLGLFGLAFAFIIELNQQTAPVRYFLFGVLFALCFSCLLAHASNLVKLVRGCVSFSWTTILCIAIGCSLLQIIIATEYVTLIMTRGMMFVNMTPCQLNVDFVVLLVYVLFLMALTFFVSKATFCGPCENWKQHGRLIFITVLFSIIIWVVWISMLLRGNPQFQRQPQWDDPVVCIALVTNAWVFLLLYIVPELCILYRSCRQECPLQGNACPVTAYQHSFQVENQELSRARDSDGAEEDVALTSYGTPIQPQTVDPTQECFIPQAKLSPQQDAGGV
Kind of test: flow cytometry on CHO-hGPRC5D cells.
Procedure: (§1) The binding of the antibodies to human and Cynomolgus GPRC5D stably transfected cells was detected by flow cytometry. […] Then, 100 μl/well of the cell suspension was added to a 96-well U-shaped plate, and centrifuged at 300 g for 5 min. The supernatant was discarded. 100 μL per well of serially diluted antibody was added (initial concentration: 200 nM, 3-fold dilution, 12 gradients), and incubated at 4° C. for 45 min. The secondary antibody 50 μL/well of Alexa Fluro647 labeled goat anti-human IgG Fc (1:300 dilution) was added, incubated on ice for 45 min, and detected by flow cytometry.

The target of test [2] is T2, human GPRC5D. In words: flow cytometry, MM.1R cells.
Procedure: The cell suspension was adjusted to a concentration of 5×10⁵ cells/mL, and 100 μL per well was added to a 96-well U-shaped plate, centrifuged at 300 g for 5 min. The supernatant was discarded. 100 μL per well of serially diluted antibody was added (initial concentration: 200 nM, 3-fold dilution, 10 gradients), and incubated at 4° C. for 60 min. The primary antibody was washed away, and 50 μL/well Alexa Fluro647 labeled goat anti-human IgG FC (1:300 dilution) was added, and incubated for 20 min. After washing once, 50 μL/well of PI was added, incubated for 5 min, and detected by flow cytometry.
Test [3] addresses T2, human GPRC5D. In words: cell-based or functional assay.

Procedure for Cynomolgus GPRC5D: as §1

B1: anti-GPRC5D chimeric antibody 18C3 (antibody, V domains shown)
VH: EVQLVESGGDLVKPGGSLKLSCAASGFTFSSYGMSWVRQTPDKRLEWVATISSGGSYTYYPDSVKGRFTISRDNAKNTLYLQMSSLKSEDTAMYYCARHEARATFDYWGQGTTLTVSS
VL: DIVMTQAAPSVPVTPGESVSISCRSSKSLLHSNGNTYLYWFLQRPGQSPQLLIYRMSNLASGVPDRFSGSGSGTAFTLRISRVEAEDVGVYYCMQHLEYPFTFGSGTKLEIK
For B1, the binding result in the test with Cynomolgus GPRC5D and in the test with human GPRC5D [1] was “binds” each time.

B2: anti-GPRC5D chimeric antibody 8C2 (antibody, V domains shown)
VH: EVQLVESGGDLVKPGGSLKLSCAASGFTFSSYGMSWVRQTPDKRLEWVATISSGGSYTYYPDSVKGRFTISRDNAKNTLYLQMSSLKSEDTAMYYCARHGGSSSYVMDYWGQGTSVTVSS
VL: DIVMTQAAPSVPVTPGESVSISCRSSKSLLHSNGNTYLYWFLQRPGQSPQLLIYRMSNLASGVPDRFSGSGSGTAFTLRISRVEAEDVGVYYCMQHLEYPFTFGSGTKLEIK
For the molecule B2, the binding result in the test with Cynomolgus GPRC5D and with human GPRC5D [1] was “binds” in each case.

B3: 2F1 × CD3 GPRC5D×CD3 κλ bispecific antibody (bispecific antibody, human IgG4 S228P, kappa, lambda)
heavy 1: QVQLVQSGAEVKKPGSSVKVSCKASGYSFTGYTMNWVREAPGQGLEWMGLINPYNGGTRYNQKFQGRVTLTVDKSSSTAYMELSSLRSEDTAVYYCARWALRYGMDYWGQGTLVTVSSASTKGPSVFPLAPCSRSTSESTAALGCLVKDYFPEPVTVSWNSGALTSGVHTFPAVLQSSGLYSLSSVVTVPSSSLGTKTYTCNVDHKPSNTKVDKRVESKYGPPCPPCPAPEFEGGPSVFLFPPKPKDTLMISRTPEVTCVVVDVSQEDPEVQFNWYVDGVEVHNAKTKPREEQFNSTYRVVSVLTVLHQDWLNGKEYKCKVSNKGLASSIEKTISKAKGQPREPQVCTLPPSQEEMTKNQVSLSCAVKGFYPSDIAVEWESNGQPENNYKTTPPVLDSDGSFFLVSKLTVDKSRWQEGNVFSCSVMHEALHNHYTQKSLSLSLGK
light 1: DIQMTQSPSSLSASVGDRVTITCRASQNVGTNVAWYQKKPGKAPKALIYSASYRNSGVPSRFSGSGSGTDFTLTISSLQPEDFATYFCQQYNSYLLTFGGGTKVEIKRTVAAPSVFIFPPSDEQLKSGTASVVCLLNNFYPREAKVQWKVDNALQSGNSQESVTEQDSKDSTYSLSSTLTLSKADYEKHKVYACEVTHQGLSSPVTKSFNRGEC
heavy 2: EVQLVESGGGLVQPGGSLRLSCAASGFTFNTYAMNWVRKAPGKGLEWVGRIRSKYNNYATYYADSVKDRFTISRDDSKNSLYLQMNSLKTEDTAVYYCVRHGNFGNSYVSWFAYWGQGTLVTVSSASTKGPSVFPLAPCSRSTSESTAALGCLVKDYFPEPVTVSWNSGALTSGVHTFPAVLQSSGLYSLSSVVTVPSSSLGTKTYTCNVDHKPSNTKVDKRVESKYGPPCPPCPAPEFEGGPSVFLFPPKPKDTLMISRTPEVTCVVVDVSQEDPEVQFNWYVDGVEVHNAKTKPREEQFNSTYRVVSVLTVLHQDWLNGKEYKCKVSNKGLASSIEKTISKAKGQPREPQVYTLPPCQEEMTKNQVSLWCLVKGFYPSDIAVEWESNGQPENNYKTTPPVLDSDGSFFLYSKLTVDKSRWQEGNVFSCSVMHEALHNHYTQKSLSLSLGK
light 2: QAVVTQEPSLTVSPGGTVTLTCRSSTGAVTTSNYANWVQEKPGQAPRGLIGGTNKRAPWTPARFSGSLLGGKAALTITGAQAEDEAEYYCVLWYSNLWVFGGGTKLTVLGQPKAAPSVTLFPPSSEELQANKATLVCLISDFYPGAVTVAWKADSSPVKAGVETTTPSKQSNNKYAASSYLSLTPEQWKSHRSYSCQVTHEGSTVEKTVAPTECS
notes: Human IgG4 knob-into-hole, Ser228Pro, Leu235Glu, Pro329Ala; also called parent 2F1×CD3 bispecific antibody
Take B3: in the test with human GPRC5D [2], a half-maximal effect (EC50) was put at 1.51 nM and the “Maximum fluorescence intensity (MFI, 200 nM)” value (“Maximum fluorescence intensity” below) worked out at 94600 MFI. The “TDCC EC50 (pM), MM.1R” value with human GPRC5D [3] came to 0.65 pM.

B4: 2E1 × CD3 GPRC5D×CD3 κλ bispecific antibody (bispecific antibody, human IgG4, V domains shown)
VH 1: QVQLVQSGAEVKKPGSSVKVSCKASGYTFTRYWMHWVREAPGQGLEWMGEFNPSNGRINYNEKFQGRVTLTIDKSSSTAYMELSSLRSEDTAVYYCTRGFAYWGQGTLVTVSS
VL 1: EIVLTQSPATLSLSPGERATLSCRASSTVSYIHWYQKKPGQAPRRLIYDTSKLASGIPARFSGSGSGTDYTLTISSLEPEDFAVYYCQQWTTNPWTFGGGTKVEIK
VH 2: EVQLVESGGGLVQPGGSLRLSCAASGFTFNTYAMNWVRKAPGKGLEWVGRIRSKYNNYATYYADSVKDRFTISRDDSKNSLYLQMNSLKTEDTAVYYCVRHGNFGNSYVSWFAYWGQGTLVTVSS
VL 2: QAVVTQEPSLTVSPGGTVTLTCRSSTGAVTTSNYANWVQEKPGQAPRGLIGGTNKRAPWTPARFSGSLLGGKAALTITGAQAEDEAEYYCVLWYSNLWVFGGGTKLTVL
notes: Human IgG4 knob-into-hole Fc with Ser228Pro, Leu235Glu, Pro329Ala; kappa light chain on the GPRC5D arm, lambda on the CD3 arm
B4: in the test with human GPRC5D [2], the concentration for a half-maximal effect (EC50) stood at 6.88 nM and the “Maximum fluorescence intensity” value turned out to be 65700 MFI. The “TDCC EC50 (pM), MM.1R” value with human GPRC5D [3] was 161 pM.

B5: 4D3 × CD3 GPRC5D×CD3 κλ bispecific antibody (bispecific antibody, human IgG4, V domains shown)
VH 1: QVQLVQSGAEVKKPGSSVKVSCKASGYTFTNFPIEWMREAPGQGLEWMGNFHPYNDVTKYNEKFQGRVTLTVDKSSSTVYMELSSLRSEDTAVYYCALITRGYWGQGTLVTVSS
VL 1: DIVMTQSPDSLAVSLGERATINCKSSQSLLYSRNQKNSLAWYQKKPGQPPKLLIYWASTRESGVPDRFSGSGSGTDFTLTISSLQAEDVAVYYCQQYYSYPLTFGQGTKLEIK
VH 2: EVQLVESGGGLVQPGGSLRLSCAASGFTFNTYAMNWVRKAPGKGLEWVGRIRSKYNNYATYYADSVKDRFTISRDDSKNSLYLQMNSLKTEDTAVYYCVRHGNFGNSYVSWFAYWGQGTLVTVSS
VL 2: QAVVTQEPSLTVSPGGTVTLTCRSSTGAVTTSNYANWVQEKPGQAPRGLIGGTNKRAPWTPARFSGSLLGGKAALTITGAQAEDEAEYYCVLWYSNLWVFGGGTKLTVL
notes: Human IgG4 knob-into-hole Fc with Ser228Pro, Leu235Glu, Pro329Ala
Regarding B5, in the test with human GPRC5D [2], the EC50 was 10.7 nM and the “Maximum fluorescence intensity” value was 110000 MFI. In the test with human GPRC5D [3], the “TDCC EC50 (pM), MM.1R” value is 6.18 pM.

B6: 4B1 × CD3 GPRC5D×CD3 κλ bispecific antibody (bispecific antibody, human IgG4, V domains shown)
VH 1: QAQLVQSGAEVKKPGSSVKVSCKASGYTFTSYNMHWVREAPGQGLEWMGYIYPGNGGTNYNQKFQGRVTLTADTSSSTAYMELSSLRSEDTAVYFCARGYGYRYWYFDVWGQGTLVTVSS
VL 1: EIVLTQSPATLSLSPGERATLSCRASSSVSYMHWYQKKPGQAPRRLIYDTSKLASGIPARFSGSGSGTDYTLTISSLEPEDFAVYYCQQWSNYPPTFGGGTKVEIK
VH 2: EVQLVESGGGLVQPGGSLRLSCAASGFTFNTYAMNWVRKAPGKGLEWVGRIRSKYNNYATYYADSVKDRFTISRDDSKNSLYLQMNSLKTEDTAVYYCVRHGNFGNSYVSWFAYWGQGTLVTVSS
VL 2: QAVVTQEPSLTVSPGGTVTLTCRSSTGAVTTSNYANWVQEKPGQAPRGLIGGTNKRAPWTPARFSGSLLGGKAALTITGAQAEDEAEYYCVLWYSNLWVFGGGTKLTVL
notes: as for B5
Regarding B6, in the test with human GPRC5D [2], the EC50 was 3.35 nM and the “Maximum fluorescence intensity” value was 70900 MFI. For the same molecule, the “TDCC EC50 (pM), MM.1R” value with human GPRC5D [3] came to 6.95 pM.

B7: anti-GPRC5D chimeric antibody 22C1 (antibody, V domains shown)
VH: EVQLQQSGPELVKPGTSMKISCKASGYSFTGYTMNWVKQSHGKNLEWIGLINPYNGGSNYNLKFKGKATLTVDKSSNTAYMELLSLTSEDSAVYYCARWGLRNAMDYWGQGTSVTVSS
VL: DIVVTQSPATLSVTPGDSVSLSCRASQSISNNLHWFQQKSHESPRLLIKYASQSISGIPSRFSGSGSGTDFTLSINSVETEDFGMYFCQQSNSWPQTFGGGTKLEIK
Regarding B7, the binding result with Cynomolgus GPRC5D and with human GPRC5D [1] was “binds” in each case.
